The results in this text go back to the Human Domainome abundance scans (Beltran et al. 2025).

B1: CD2-associated protein, residues 109 to 169; numbered along this chain, Q9Y5K6 (parent)
chain: KKRQCKVLFEYIPQNEDELELKVGDIIDINEEVEEGWWSGTLNNKLGLFPSNFVKELEVTD

± gives the uncertainty stated by the source.

The variants in this data set derive from B1. In words: abundance fitness (aPCA) (normalised: wild type 0, dead -1); higher = more abundant; growth selection in yeast, the domain comes from the species named. To be noted: Homo sapiens.
As to KKRQCKVLFEYIPQNEDELELKVGDIIDINEEVEEGWWSGTLNNKLGLFPSNFPKELEVTD [V54P], the abundance fitness was -0.816 ± 0.27.
The value for KKRQCKVLFEYIPQNEDELELKVGDIIDINEEVEEGWWSGTLNNKLGLFPSNFAKELEVTD [V54A] was -0.52 ± 0.15; that for KKRQCKVLFEYIPQNEDELELKVGDIIDINEEVEEGWWSGTLNNKLGLFPSNFMKELEVTD [V54M] was -0.63 ± 0.23.
Under KKRQCKVLFEYIPQNEDELELKVGDIIDINEEVEEGWWSGTLNNKLGLFPSNFFKELEVTD [V54F] stands -0.416 ± 0.33; under KKRQCKVLFEYIPQNEDELELKVGDIIDINEEVEEGWWSGTLNNKLGLFPSNFGKELEVTD [V54G], -0.661 ± 0.16.
The value for KKRQCKVLFEYIPQNEDELELKVGDIIDINEEVEEGWWSGTLNNKLGLFPSNFIKELEVTD [V54I] was -0.113 ± 0.12.
For KKRQCKVLFEYIPQNEDELELKVGDIIDINEEVEEGWWSGTLNNKLGLFPSNFLKELEVTD [V54L], the abundance fitness was -0.753 ± 0.15.
The value for KKRQCKVLFEYIPQNEDELELKVGDIIDINEEVEEGWWSGTLNNKLGLFPSNFQKELEVTD [V54Q] was -0.546 ± 0.41; that for KKRQCKVLFEYIPQNEDELELKVGDIIDINEEVEEGWWSGTLNNKLGLFPSNFCKELEVTD [V54C] was 0.125 ± 0.26.
The value for KKRQCKVLFEYIPQNEDELELKVGDIIDINEEVEEGWWSGTLNNKLGLFPSNFNKELEVTD [V54N] was -0.84 ± 0.44.
For KKRQCKVLFEYIPQNEDELELKVGDIIDINEEVEEGWWSGTLNNKLGVFPSNFVKELEVTD [L48V], the abundance fitness was -0.067 ± 0.055.
The value for KKRQCKVLFEYIPQNEDELELKVGDIIDINEEVEEGWWSGTLNNKLGWFPSNFVKELEVTD [L48W] was -0.201 ± 0.1; that for KKRQCKVLFEYIPQNEDELELKVGDIIDINEEVEEGWWSGTLNNKLGYFPSNFVKELEVTD [L48Y] was -0.033 ± 0.082.
For KKRQCKVLFEYIPQNEDELELKVGDIIDINEEVEEGWWSGTLNNKLGLAPSNFVKELEVTD [F49A], the abundance fitness was -0.755 ± 0.31.
Under KKRQCKVLFEYIPQNEDELELKVGDIIDINEEVEEGWWSGTLNNKLGLEPSNFVKELEVTD [F49E] stands -0.872 ± 0.45; under KKRQCKVLFEYIPQNEDELELKVGDIIDINEEVEEGWWSGTLNNKLGLKPSNFVKELEVTD [F49K], -0.524 ± 0.3; under KKRQCKVLFEYIPQNEDELELKVGDIIDINEEVEEGWWSGTLNNKLGLYPSNFVKELEVTD [F49Y], -0.27 ± 0.4.
The value for KKRQCKVLFEYIPQNEDELELKVGDIIDINEEVEEGWWSGTLNNKLGLSPSNFVKELEVTD [F49S] was -0.707 ± 0.16; that for KKRQCKVLFEYIPQNEDELELKVGDIIDINEEVEEGWWSGTLNNKLGLRPSNFVKELEVTD [F49R] was -1.3 ± 0.26; that for KKRQCKVLFEYIPQNEDELELKVGDIIDINEEVEEGWWSGTLNNKLGLLPSNFVKELEVTD [F49L] was -0.77 ± 0.15.
Under KKRQCKVLFEYIPQNEDELELKVGDIIDINEEVEEGWWSGTLNNKLGLCPSNFVKELEVTD [F49C] stands -0.953 ± 0.34.
As to KKRQCKVLFEYIPQNEDELELKVGDIIDINEEVEEGWWSGTLNNKLGLTPSNFVKELEVTD [F49T], the abundance fitness was -0.921 ± 0.29.
In the case of KKRQCKVLFEYIPQNEDELELKVGDIIDINEEVEEGWWSGTLNNKLGLDPSNFVKELEVTD [F49D], the abundance fitness is -0.815 ± 0.4.
Take KKRQCKVLFEYIPQNEDELELKVGDIIDINEEVEEGWWSGTLNNKLGLWPSNFVKELEVTD [F49W]: the abundance fitness is -1.01 ± 0.25.
Under KKRQCKVLFEYIPQNEDELELKVGDIIDINEEVEEGWWSGTLNNKLGLGPSNFVKELEVTD [F49G] stands -1.06 ± 0.27; under KKRQCKVLFEYIPQNEDELELKVGDIIDINEEVEEGWWSGTLNNKLGLFPSAFVKELEVTD [N52A], -0.067 ± 0.092.
The value for KKRQCKVLFEYIPQNEDELELKVGDIIDINEEVEEGWWSGTLNNKLGLFPSDFVKELEVTD [N52D] was -0.016 ± 0.1; that for KKRQCKVLFEYIPQNEDELELKVGDIIDINEEVEEGWWSGTLNNKLGLFPSLFVKELEVTD [N52L] was -0.287 ± 0.096; that for KKRQCKVLFEYIPQNEDELELKVGDIIDINEEVEEGWWSGTLNNKLGLFPSMFVKELEVTD [N52M] was -0.12 ± 0.17.
The value for KKRQCKVLFEYIPQNEDELELKVGDIIDINEEVEEGWWSGTLNNKLGLFPSWFVKELEVTD [N52W] was -0.454 ± 0.12.
With KKRQCKVLFEYIPQNEDELELKVGDIIDINEEVEEGWWSGTLNNKLGLFPSSFVKELEVTD [N52S], the abundance fitness was -0.02 ± 0.079.
The value for KKRQCKVLFEYIPQNEDELELKVGDIIDINEEVEEGWWSGTLNNKLGLFPSCFVKELEVTD [N52C] was 0.114 ± 0.13.
Under KKRQCKVLFEYIPQNEDELELKVGDIIDINEEVEEGWWSGTLNNKLGLFPSQFVKELEVTD [N52Q] stands -0.255 ± 0.11.
Under KKRQCKVLFEYIPQNEDELELKVGDIIDINEEVEEGWWSGTLNNKLGLFPSYFVKELEVTD [N52Y] stands -0.34 ± 0.15; under KKRQCKVLFEYIPQNEDELELKVGDIIDINEEVEEGWWSGTLNNKLGLFPSPFVKELEVTD [N52P], -0.228 ± 0.12.
As to KKRQCKVLFEYIPQNEDELELKVGDIIDINEEVEEGWWSGTLNNKLGLFPSRFVKELEVTD [N52R], the abundance fitness stood at 0.048 ± 0.079.
The value for KKRQCKVLFEYIPQNEDELELKVGDIIDINEEVEEGWWSGTLNNKLGLFPSEFVKELEVTD [N52E] was 0.053 ± 0.086; that for KKRQCKVLFEYIPQNEDELELKVGDIIDINEEVEEGWWSGTLNNKLGLFPSFFVKELEVTD [N52F] was -0.228 ± 0.24.
The value for KKRQCKVLFEYIPQNEDELELKVGDIIDINEEVEEGWWSGTLNNKLGLFPSKFVKELEVTD [N52K] was 0.048 ± 0.16.
The value for KKRQCKVLFEYIPQNEDELELKVGDIIDINEEVEEGWWSGTLNNKLGLFPSHFVKELEVTD [N52H] was -0.348 ± 0.21; that for KKRQCKVLFEYIPQNEDELELKVGDIIDINEEVEEGWWSGTLNNKLGLFPNNFVKELEVTD [S51N] was -0.769 ± 0.4.
For KKRQCKVLFEYIPQNEDELELKVGDIIDINEEVEEGWWSGTLNNKLGLFPDNFVKELEVTD [S51D], the abundance fitness is -0.324 ± 0.24.
The value for KKRQCKVLFEYIPQNEDELELKVGDIIDINEEVEEGWWSGTLNNKLGLFPVNFVKELEVTD [S51V] was -0.069 ± 0.067.
